{"source": "paper PMC6684243", "target": "N-terminal domain of the HIV-1 capsid protein (HIV-1) (UniProt P12493)", "experiment": "ITC"}
{"substance": "calcium-saturated human calmodulin ((Ca^2+)4-CaM) (from UniProt P0DP23 1-149) (natural protein)", "values": [{"measurement": "Kd", "value": 3.73, "unit": "µM"}, {"measurement": "stoichiometry N", "value": 1}]}
